{"source": "patent US20240277804A1", "about": "“TRIPLE COMBINATION THERAPY” (Immutep S.A.S., priority 2021, published 2024)", "molecules": {"B1": {"name": "IMP321: recombinant soluble human LAG-3Ig fusion protein, 160-kDa dimer: extracellular domain of hLAG-3 fused to human IgG1 Fc; APC activator (protein)", "chain": "LQPGAEVPVVWAQEGAPAQLPCSPTIPLQDLSLLRRAGVTWQHQPDSGPPAAAPGHPLAPGPHPAAPSSWGPRPRRYTVLSVGPGGLRSGRLPLQPRVQLDERGRQRGDFSLWLRPARRADAGEYRAAVHLRDRALSCRLRLRLGQASMTASPPGSLRASDWVILNCSFSRPDRPASVHWFRNRGQGRVPVRESPHHHLAESFLFLPQVSPMDSGPWGCILTYRDGFNVSIMYNLTVLGLEPPTPLTVYAGAGSRVGLPCRLPAGVGTRSFLTAKWTPPGGGPDLLVTGDNGDFTLRLEDVSQAQAGTYTCHIHLQEQQLNATVTLAIITVTPKSFGSPGSLGKLLCEVTPVSGQERFVWSSLDTPSQRSFSGPWLEAQEAQLLSQPWQCQLYQGERLLGAAVYFTELSSPG", "modifications": "left off: small tags and cut ends; a dimerising Fc or GST"}}, "key": {"[1]": {"test": "Safety of s.c. IMP321 in cancer patients", "type": "in vivo, human", "protocol": "(§1) Doses of 6-30 mg per subcutaneous (s.c.) injection of IMP321 have been shown, thus far, to be safe and provide an acceptable systemic exposure based on the results of pharmacokinetics data obtained in cancer patients."}, "[2]": {"test": "Pharmacokinetics of IMP321 after s.c. injection in cancer patients", "type": "in vivo, human", "details": "for at least 24 hours after s.c. injection; patients injected with IMP321 doses of more than 6 mg", "protocol": "as §1"}}, "data": [{"molecule": "B1", "values": [{"measurement": "safety / acceptable systemic exposure", "setting": "[1]; doses of 6-30 mg per s.c. injection", "result": "safe"}, {"measurement": "dose limiting toxicity", "setting": "[1]; to date", "result": "No dose limiting toxicity has been observed"}, {"measurement": "blood concentration of IMP321", "setting": "[2]", "result": "> 1", "unit": "ng/mL"}]}]}
